The supplement of paper PMC9112550, “Optimization of the antimicrobial peptide Bac7 by deep mutational scanning” (BMC Biology, 2022)

Test system: Escherichia coli TOP10
Test: shrunken log2 fold change of peptide-encoding DNA abundance (4.5 h post-induction vs induction); higher = less antimicrobial activity (less host growth inhibition)
Settings: time post-induction: 4.5 h; library: site-saturation at positions 5, 18, 19, 20
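Further: peptides expressed intracellularly from a pBAD plasmid library in pooled LB shake-flask culture, induced with 0.3% L-arabinose, DNA abundance read by NGS, three biological replicates, DESeq2 with apeglm shrinkage.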

Sequence	shrunken log2 fold change
RRIRGRPPRLPRPRPRPYVTPRP	0.0521
RRIRGRPPRLPRPRPRPYWSPRP	-0.251
RRIRGRPPRLPRPRPRPYYAPRP	-0.242
RRIRGRPPRLPRPRPRPYYIPRP	-0.233
RRIRGRPPRLPRPRPRPYYQPRP	-0.537
RRIRGRPPRLPRPRPRPYYTPRP	1.19
RRIRHRPPRLPRPRPRPAALPRP	-0.0796
RRIRHRPPRLPRPRPRPAAVPRP	0.0752
RRIRHRPPRLPRPRPRPACDPRP	0.285
RRIRHRPPRLPRPRPRPACSPRP	-0.104
RRIRHRPPRLPRPRPRPAENPRP	-0.0113
RRIRHRPPRLPRPRPRPAFHPRP	-0.152
RRIRHRPPRLPRPRPRPAHYPRP	-0.139
RRIRHRPPRLPRPRPRPAIRPRP	-0.000964
RRIRHRPPRLPRPRPRPALMPRP	-0.0655
RRIRHRPPRLPRPRPRPAMSPRP	0.0912
RRIRHRPPRLPRPRPRPAMYPRP	-0.0134
RRIRHRPPRLPRPRPRPANLPRP	-0.00674
RRIRHRPPRLPRPRPRPANNPRP	-0.613
RRIRHRPPRLPRPRPRPAQHPRP	-0.14
RRIRHRPPRLPRPRPRPASEPRP	-0.131
RRIRHRPPRLPRPRPRPATNPRP	0.607
RRIRHRPPRLPRPRPRPAVIPRP	-0.0639
RRIRHRPPRLPRPRPRPAVQPRP	-0.0994
RRIRHRPPRLPRPRPRPAVVPRP	-0.182

Sequence	shrunken log2 fold change
RRIRHRPPRLPRPRPRPAYMPRP	0.0834
RRIRHRPPRLPRPRPRPCCLPRP	-0.82
RRIRHRPPRLPRPRPRPCDIPRP	-0.0274
RRIRHRPPRLPRPRPRPCELPRP	0.00567
RRIRHRPPRLPRPRPRPCFCPRP	-0.226
RRIRHRPPRLPRPRPRPCFFPRP	-0.193
RRIRHRPPRLPRPRPRPCFWPRP	-0.0857
RRIRHRPPRLPRPRPRPCHKPRP	-0.0933
RRIRHRPPRLPRPRPRPCIHPRP	-0.345
RRIRHRPPRLPRPRPRPCIKPRP	-0.721
RRIRHRPPRLPRPRPRPCIQPRP	-0.00018
RRIRHRPPRLPRPRPRPCLLPRP	-0.342
RRIRHRPPRLPRPRPRPCLQPRP	-0.148
RRIRHRPPRLPRPRPRPCNLPRP	-0.135
RRIRHRPPRLPRPRPRPCPMPRP	-0.0207
RRIRHRPPRLPRPRPRPCQMPRP	-0.0239
RRIRHRPPRLPRPRPRPCQWPRP	-0.0469
RRIRHRPPRLPRPRPRPCRDPRP	0.0154
RRIRHRPPRLPRPRPRPCRLPRP	0.0253
RRIRHRPPRLPRPRPRPCRQPRP	-0.035
RRIRHRPPRLPRPRPRPCRVPRP	-0.242
RRIRHRPPRLPRPRPRPCSSPRP	0.032
RRIRHRPPRLPRPRPRPCTKPRP	0.0647
RRIRHRPPRLPRPRPRPCTYPRP	-0.634
RRIRHRPPRLPRPRPRPCWKPRP	-0.119

Sequence	shrunken log2 fold change
RRIRHRPPRLPRPRPRPCWYPRP	-0.0677
RRIRHRPPRLPRPRPRPCYAPRP	-0.291
RRIRHRPPRLPRPRPRPDAVPRP	0.0938
RRIRHRPPRLPRPRPRPDCCPRP	-0.0827
RRIRHRPPRLPRPRPRPDCEPRP	-0.0807
RRIRHRPPRLPRPRPRPDCLPRP	-0.228
RRIRHRPPRLPRPRPRPDCPPRP	0.0615
RRIRHRPPRLPRPRPRPDCSPRP	-0.284
RRIRHRPPRLPRPRPRPDCTPRP	0.0402
RRIRHRPPRLPRPRPRPDFDPRP	0.0484
RRIRHRPPRLPRPRPRPDGPPRP	-0.0182
RRIRHRPPRLPRPRPRPDHSPRP	-0.00651
RRIRHRPPRLPRPRPRPDIWPRP	-0.11
RRIRHRPPRLPRPRPRPDKIPRP	-0.042
RRIRHRPPRLPRPRPRPDLAPRP	0.0081
RRIRHRPPRLPRPRPRPDPFPRP	-0.409
RRIRHRPPRLPRPRPRPDPPPRP	0.232
RRIRHRPPRLPRPRPRPDPSPRP	-0.00848
RRIRHRPPRLPRPRPRPDPVPRP	0.126
RRIRHRPPRLPRPRPRPDQRPRP	-0.00114
RRIRHRPPRLPRPRPRPDRFPRP	-0.00476
RRIRHRPPRLPRPRPRPDSIPRP	-0.0212
RRIRHRPPRLPRPRPRPDSPPRP	0.0316
RRIRHRPPRLPRPRPRPDTDPRP	-0.0683
RRIRHRPPRLPRPRPRPEAAPRP	0.83

Sequence	shrunken log2 fold change
RRIRHRPPRLPRPRPRPEEWPRP	0.0893
RRIRHRPPRLPRPRPRPEFEPRP	0.0692
RRIRHRPPRLPRPRPRPEHYPRP	0.504
RRIRHRPPRLPRPRPRPEKRPRP	-0.01
RRIRHRPPRLPRPRPRPEKYPRP	-0.159
RRIRHRPPRLPRPRPRPENTPRP	0.0466
RRIRHRPPRLPRPRPRPEQVPRP	-0.0321
RRIRHRPPRLPRPRPRPERFPRP	-0.0122
RRIRHRPPRLPRPRPRPERNPRP	0.036
RRIRHRPPRLPRPRPRPESEPRP	-0.00193
RRIRHRPPRLPRPRPRPETLPRP	-0.18
RRIRHRPPRLPRPRPRPETWPRP	-0.238
RRIRHRPPRLPRPRPRPEVHPRP	0.16
RRIRHRPPRLPRPRPRPEVYPRP	-0.0062
RRIRHRPPRLPRPRPRPEWIPRP	-0.0632
RRIRHRPPRLPRPRPRPEWYPRP	0.0294
RRIRHRPPRLPRPRPRPEYVPRP	-0.0134
RRIRHRPPRLPRPRPRPEYYPRP	-0.241
RRIRHRPPRLPRPRPRPFANPRP	-0.483
RRIRHRPPRLPRPRPRPFAWPRP	-0.186
RRIRHRPPRLPRPRPRPFEDPRP	0.0112
RRIRHRPPRLPRPRPRPFFGPRP	-0.0142
RRIRHRPPRLPRPRPRPFGTPRP	-0.213
RRIRHRPPRLPRPRPRPFHGPRP	-0.121
RRIRHRPPRLPRPRPRPFIFPRP	-0.656

Sequence	shrunken log2 fold change
RRIRHRPPRLPRPRPRPFIWPRP	-0.162
RRIRHRPPRLPRPRPRPFKIPRP	-0.192
RRIRHRPPRLPRPRPRPFLCPRP	-0.172
RRIRHRPPRLPRPRPRPFMMPRP	-0.272
RRIRHRPPRLPRPRPRPFMPPRP	-0.146
RRIRHRPPRLPRPRPRPFMVPRP	-0.43
RRIRHRPPRLPRPRPRPFMYPRP	-0.249
RRIRHRPPRLPRPRPRPFNIPRP	0.0518
RRIRHRPPRLPRPRPRPFNYPRP	0.0485
RRIRHRPPRLPRPRPRPFPPPRP	-0.228
RRIRHRPPRLPRPRPRPFRAPRP	-0.211
RRIRHRPPRLPRPRPRPFSNPRP	-1.09
RRIRHRPPRLPRPRPRPFSSPRP	0.107
RRIRHRPPRLPRPRPRPFSYPRP	-0.28
RRIRHRPPRLPRPRPRPFTAPRP	-0.559
RRIRHRPPRLPRPRPRPFTKPRP	0.009
RRIRHRPPRLPRPRPRPFTPPRP	-0.484
RRIRHRPPRLPRPRPRPFVEPRP	-0.45
RRIRHRPPRLPRPRPRPFWCPRP	-0.3
RRIRHRPPRLPRPRPRPGAGPRP	0.395
RRIRHRPPRLPRPRPRPGANPRP	-0.0811
RRIRHRPPRLPRPRPRPGCYPRP	0.0554
RRIRHRPPRLPRPRPRPGDAPRP	0.0297
RRIRHRPPRLPRPRPRPGDRPRP	2.17
RRIRHRPPRLPRPRPRPGEQPRP	0.0974

Sequence	shrunken log2 fold change
RRIRHRPPRLPRPRPRPGGCPRP	0.165
RRIRHRPPRLPRPRPRPGHGPRP	0.0264
RRIRHRPPRLPRPRPRPGHHPRP	-0.132
RRIRHRPPRLPRPRPRPGHNPRP	-0.166
RRIRHRPPRLPRPRPRPGLTPRP	0.129
RRIRHRPPRLPRPRPRPGMCPRP	-0.493
RRIRHRPPRLPRPRPRPGPAPRP	0.871
RRIRHRPPRLPRPRPRPGPTPRP	0.146
RRIRHRPPRLPRPRPRPGQEPRP	-0.00664
RRIRHRPPRLPRPRPRPGQNPRP	-0.226
RRIRHRPPRLPRPRPRPGRAPRP	0.49
RRIRHRPPRLPRPRPRPGRPPRP	0.616
RRIRHRPPRLPRPRPRPGSAPRP	0.323
RRIRHRPPRLPRPRPRPGSMPRP	-0.099
RRIRHRPPRLPRPRPRPGWCPRP	0.399
RRIRHRPPRLPRPRPRPGWSPRP	0.0123
RRIRHRPPRLPRPRPRPGYLPRP	-0.243
RRIRHRPPRLPRPRPRPGYRPRP	-0.00177
RRIRHRPPRLPRPRPRPGYVPRP	-0.211
RRIRHRPPRLPRPRPRPHAKPRP	-0.00884
RRIRHRPPRLPRPRPRPHCFPRP	-0.312
RRIRHRPPRLPRPRPRPHFCPRP	-0.0593
RRIRHRPPRLPRPRPRPHIYPRP	-0.169
RRIRHRPPRLPRPRPRPHLFPRP	-0.154
RRIRHRPPRLPRPRPRPHNPPRP	-0.216
